The values that follow come from PMC6793842 (2019).

Sequences and labels used below:
B4: chimpanzee basigin, entire ectodomain (receptor)
chain: ASGAAGTVFTTVEDLGSKILLTCYMNDSATEVTGHRWLKGGVVLEEDALPGQKTEFKVDSDDQWGEYSCVFLPEPMGTANIQLHGPPRVKAVKSSEHINEGETAVLVCKSESVPPVTDWAWYKITDSGDKALMNGSESRFFVSSLQGRSELHIENLNMEADPGQYRCNGNSSEGSDQAVITLRVRSHLA
modifications: biotin (enzymatic monobiotinylation; site not stated)

Among the targets are P. adleri RH5 (P. adleri); P. praefalciparum RH5 (P. praefalciparum); P. gaboni RH5 (P. gaboni); P. billcollinsi RH5 (P. billcollinsi).
Common to all, as to assay: SPR
In general terms: Surface plasmon resonance follows binding to a sensor surface in real time, without labels.

Assay [1] addresses introgressed ancestral RH5 (reticulocyte-binding protein homologue 5) (calculated ancestor; parent sequence P. …, UniProt Q8IFM5 25-526, H200).
Assay [2] has as its target B4.

B1: gorilla basigin, entire ectodomain (receptor)
chain: ASGAAGTVLTTVEELGSKILLTCSLNDSATEVTGHRWLKGGVVLKEDALPGQKTEFEVDSDDQWGEYSCVFLPEPMGTANIQLHHGPPRVKAVKLSEHINEGETAVLACKSESVPPVTDWAWYKITDSGDKALTNGSESRFFVSSSQGRSELYIENLNMEADPGQYRCNGTSSKGSDQAVITLRVRSHLA
modifications: biotin (enzymatic monobiotinylation; site not stated)
One may read the Kd as the concentration at which binding is half-saturated. As for B1, the Kd with P. adleri RH5 is 1000 nM; in the assay with P. praefalciparum RH5, 2500 nM; in assay [1], 3000 nM.

B2: human basigin, entire ectodomain (receptor)
chain: EPGTVFTTVEDLGSKILLTCSLNDSATEVTGHRWLKGGVVLKEDALPGQKTEFKVDSDDQWGEYSCVFLPEPMGTANIQLHGPPRVKAVKSSEHINEGETAMLVCKSESVPPVTDWAWYKITDSEDKALMNGSESRFFVSSSQGRSELHIENLNMEADPGQYRCNGTSSKGSDQAIITLRVRSHLAAL
modifications: biotin (enzymatic monobiotinylation; site not stated)
B2: the values for the Kd with P. adleri RH5, in the assay with P. praefalciparum RH5 and with P. gaboni RH5 were 3100 nM, 1900 nM and 3600 nM, respectively.

B3: P. reichenowi RH5 (ligand)
chain: MIRIKKKIILSILYIHLFILNSLSFENAKKKTKNQENNLTLLPIKSSEEEKSNIKHKDIGNVNKDDINNDIDNDKKDVKISNVKDHSTYIKSYLNKNVNDGLKYLFMPSHNAYIKKYSLFNKMNNDMLLNEKKDVNNNKEDDKNINHKNVNFLQNDFKGLPKNNIADSIDIVQDKEGHLDFIIIPYYSHVEYCKHLSIISVFHRLSTYGEYKDVIAFVKNINEKYDKVKDKCNEIKNDLITTIKKLENPHDVNNKNEDSNIYNTFEDIDDIYEDDMQDQLEYVYDTIEDADSDNTHPNKKKYHLINRTYKKMMDEYNLKKNKLIQCIKNNEPDFNNIYMDIKNYSTNRFENISCDNINFCNTNGIKNHYIYYIEKEMLAIKSKDLNKDIKDMTSILQQSELLLINLNKKMGSYIYIDTIKFIHKEMKYIFKRIEHHTNIIIDKIKIIDDKYKISINKTFPKNILLPKILDLSNEYALFITSSTLRQMLYNTFYTKEKHLHNLFHHLIYVLQIKFNDVPVHMEYFPLYKKKKILTQ
B3: the Kd in assay [2] worked out at 4300 nM.

B4 showed a Kd with P. billcollinsi RH5 of 1800 nM.
